Laboratory results reported in patent US20260031189A1 (BIONTECH US, published 2026).

Molecular target: S353-369
Test: FP assay; pair as listed in Table 23

B1: HLA-DRA*01:01/DRB4*01:03 soluble heterodimer (receptor)
MHC II alpha: not shown
MHC II beta: not shown
notes: also called HLA-DRB4*01:03/DRA*01:01
binding result: binds
